This is an account of results in patent publication US7351555B2, “Mouse cytokine receptor Zcytor16” (ZymoGenetics, Inc., priority 2001, dated 2008).

One data set has as its system BaF3 wild type cells. As to the kind of experiment: Alamar Blue proliferation assay, IL-TIF activity. It is filed as cell-based, murine. Background: The colour change of resazurin is a common sign of viable cells or microbes.
Data set [1] concerns BaF3/mZcytor16-MPL receptor cell line. As to the kind of experiment: Proliferation assay with BaF3/mZcytor16-MPL chimera cells. The data set is classed as cell-based, murine. The settings on record: in the presence of the correct receptor complex. On the procedure: Using standard methods described herein, cells expressing a BaF3/mZcytor16-MPL chimera (wherein the extracellular domain of the mouse Zcytor16 (e.g., amino acids 24 to 230 of SEQ ID NO:38 or SEQ ID NO:48) is fused in frame to the intracellular signaling domain of the mpl receptor) are tested for proliferative response in the presence of IL-TIF. Such cells serve as a bioassay cell line to measure ligand binding of monomeric or homodimeric mouse Zcytor16 receptors. In addition, BaF3/mZcytor16-MPL chimera cells transfected with an additional heterodimeric cytokine receptor subunit can be assessed for proliferative response in the presence of IL-TIF. […] Transfection of the BaF3/MPL-mZcytor16 cell line with and additional MPL-class II cytokine receptor fusion that signals in the presence of the IL-TIF ligand, such as CRF2-4, determines which heterodimeric cytokine receptor subunits are required for mouse Zcytor16 receptor signaling. Use of MPL-receptor fusions for this purpose alleviates the requirement for the presence of an intracellular signaling domain for the mouse Zcytor16 receptor.
Each independent receptor complex cell line is then assayed in the presence of IL-TIF and proliferation measured using routine methods (e.g., Alamar Blue assay). […]

In a further data set the test system is BaF3/CRF2-4 cells. As to the kind of experiment: Alamar Blue proliferation assay, IL-TIF activity. It is filed as cell-based, murine.
In data set [2] the test system is BaF3/CRF2-4/zcytor11 cells. Nature of the data set: Alamar Blue proliferation assay, IL-TIF activity. It is filed as cell-based, murine. The settings on record: 3 days + Alamar Blue. On the procedure:
BaF3/CRF2-4/zcytor11 cells were spun down and washed in the complete media, described in Example 7A above, but without mIL-3 (hereinafter referred to as “mIL-3 free media”). The cells were spun and washed 3 times to ensure the removal of the mIL-3. Cells were then counted in a hemacytometer. Cells were plated in a 96-well format at 5000 cells per well in a volume of 100 μl per well using the mIL-3 free media.
Proliferation of the BaF3/CRF2-4/zcytor11 cells was assessed using IL-TIF-CEE protein diluted with mIL-3 free media to 50, 10, 2, 1, 0.5, 0.25, 0.13, 0.06 ng/ml concentrations. 100 μl of the diluted protein was added to the BaF3/CRF2-4/zcytor11 cells. The total assay volume is 200 μl. The assay plates were incubated at 37° C., 5% CO2 for 3 days at which time Alamar Blue (Accumed, Chicago, Ill.) was added at 20 μl/well. Plates were again incubated at 37° C., 5% CO2 for 24 hours. Alamar Blue gives a fluourometric readout based on number of live cells, and is thus a direct measurement of cell proliferation in comparison to a negative control. […] Plates were read on the Fmax™ plate reader (Molecular Devices Sunnyvale, Calif.) using the SoftMax™ Pro program, at wavelengths 544 (Excitation) and 590 (Emmission). […] The response, as measured, was approximately 15-fold over background at the high end of 50 ng/ml down to a 2-fold induction at the low end of 0.06 ng/ml.

A further data set has as its system MES 13 cells. As to the kind of experiment: IL-TIF activation of SRE/STAT luciferase reporter mini-gene in MES 13 cells. The data set is classed as cell-based, murine. The settings on record: 4 h. On the procedure: MES 13 cells (ATCC No. CRL-1927) were plated at 10,000 cells/well in 96-well tissue culture clusters (Costar) in DMEM growth medium (Life Technologies) supplemented with pyruvate and 10% serum (HyClone). Next day, the medium was switched to serum free DMEM medium by substituting 0.1% BSA (Fraction V; Sigma) for serum. This medium also contained the adenoviral construct KZ136 (below) that encodes a luciferase reporter mini-gene driven by SRE and STAT elements, at a 1000:1 multiplicity of infection (m.o.i.), i.e. 1000 adenoviral particles per cell. After allowing 24 h for the incorporation of the adenoviral construct in the cells, the media were changed and replaced with serum-free media. Human recombinant IL-TIF with or without a recombinant Zcytor16-Fc4 fusion was added at the indicated final concentration in the well (as described in Table 11, below). Dilutions of both the IL-TIF and Zcytor16-Fc4 were performed in serum-free medium. 0.1% BSA was added for a basal assay control. 4 h later, cells were lysed and luciferase activity, denoting activation of the reporter gene, was determined in the lysate using an Luciferase Assay System assay kit (Promega) and a Labsystems Luminoskan luminometer (Labsystems, Helsinki, Finland). Activity was expressed as luciferase units (LU) in the lysate.
The construction of the adenoviral KZ136 vector was as follows. The original KZ136 vector is disclosed in Poulsen, L K et al. J. Biol. Chem. 273:6228-6232, 1998. The CMV promoter/enhancer and SV40 pA sequences were removed from pACCMV.pLpA (T. C. Becker et al., […] 43:161-189, 1994.) and replaced with a linker containing Asp718/KpnI and HindIII sites (oligos ZC13252 (SEQ ID NO:26) and ZC13453 (SEQ ID NO:27)). The STAT/SRE driven luciferase reporter cassette was exised from vector KZ136 (Poulsen, L K et al., supra.).) as a Asp718/KpnI-HindIII fragment and inserted into the adapted pAC vector. Recombinant KZ136 Adenovirus was produced by transfection with JM17 Adenovirus into 293 cells as described in T. C. Becker et al. supra.). Plaque purified virus was amplified and used to infect cultured cells at 5-50 pfu/cell 12-48 hours before assay. Luciferase reporter assays were performed as described in 96 well microplates as per Poulsen, L K et al., supra.).
Background: In a reporter assay the amount or activity of a reporter protein is the signal.

The test system of the next data set is K-562 cells. As to the kind of experiment: K-562 cytotoxicity assay (MTT). The data set is classed as cell-based, human. The conditions noted are these: 72 h. On the procedure: The K-562 cell line (CRL-243, ATCC) has attained widespread use as a highly sensitive in vitro target for cytotoxicity assays. K-562 blasts are multipotential, hematopoietic malignant cells that spontaneously differentiate into recognizable progenitors of the erythrocytic, granulocytic and monocytic series (Lozzio, B B et al., Proc. Soc. Exp. Biol. Med. 166: 546-550, 1981).
K562 cells were plated at 5,000 cells/well in 96-well tissue culture clusters (Costar) in DMEM phenol-free growth medium (Life Technologies) supplemented with pyruvate and 10% serum (HyClone). Next day, human recombinant IL-TIF (Example 19), BSA control or retinoic acid (known to be cytotoxic to K562 cells) were added. Seventy-two hours later, the vital stain MTT (Sigma, St Louis, Mo.), a widely used indicator of mitochondrial activity and cell growth, was added to the cells at a final concentration of 0.5 mg/ml. […] is converted to a purple formazan derivative by mitochondrial dehydrogenases. Four hours later, converted MMP was solubilized by adding an equal volume of acidic, isopropanol (0.04N HCl in absolute isopropanol) to the wells. Absorbance was measured at 570 nm, with background subtraction at 650 nm. In this experimental setting, absorbance reflects cell viability. Results shown in Table 12 are expressed as % cytotoxicity.

B1: IL-TIF: human IL-TIF polypeptide (SEQ ID NO:15) containing C-terminal GluGlu (EE) tag, purified from BHK cells (protein, listed as Homo sapiens)
chain: MAALQKSVSSFLMGTLATSCLLLLALLVQGGAAAPISSHCRLDKSNFQQPYITNRTFMLAKEASLADNNTDVRLIGEKLFHGVSMSERCYLMKQVLNFTLEEVLFPQSDRFQPYMQEVVPFLARLSNRLSTCHIEGDDLHIQRNVQKLKDTVKKLGESGEIKAIGELDLLFMSLRNACI
modifications: C-terminal EE tag
Take B1: the “proliferation in response to IL-TIF-CEE” value in the data set with BaF3 wild type cells and in the data set with BaF3/CRF2-4 cells was “did not proliferate” each time. In addition, the “increase of proliferation over background” value in data set [1] is recorded as at least 5 fold. The “proliferative response (induction)” value in data set [2] (IL-TIF-CEE 0.06 ng/ml) was around 2 fold. Also, the “proliferative response over background” value in data set [2] (IL-TIF-CEE 50 ng/ml) is on record as “approximately 15 fold”. Further, the “LU w/o zcytoR16” value in the data set on MES 13 cells (IL-TIF 0.03 ng/ml) came out at 105 ± 3 LU; with MES 13 cells (IL-TIF 0.3 ng/ml) it was 108 ± 4 LU; in the data set on MES 13 cells (IL-TIF 3 ng/ml), 134 ± 8 LU; in the data set on MES 13 cells (IL-TIF 30 ng/ml), 188 ± 16 LU; in the data set on MES 13 cells (IL-TIF 300 ng/ml) it was 258 ± 21 LU. Moreover, the “% Cytotoxicity” value in the data set on K-562 cells (100 ng/ml) was found to be 16.2%; in the data set with K-562 cells (300 ng/ml), 32%.
